Experimental data: US20180155451A1 (published 2018)

T1: FcγRIIb (human, UniProt P31994 43-217)
T1 construct: extracellular domain; Soluble extracellular domain with C-terminal His tag, used as analyte in Biacore; also called FcgRIIb; 2b; not shown: His tag attached to the C terminus
T1 sequence (looked up): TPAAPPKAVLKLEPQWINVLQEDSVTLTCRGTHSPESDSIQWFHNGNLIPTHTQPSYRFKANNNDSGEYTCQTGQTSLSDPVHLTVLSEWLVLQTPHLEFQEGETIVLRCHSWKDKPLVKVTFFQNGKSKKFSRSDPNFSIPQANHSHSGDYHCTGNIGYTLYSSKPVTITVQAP


Key:
FcγRIa [1] = target: T2, FcγRIa (human, UniProt P12314 16-292); experiment: SPR (Biacore); He/Con_1a divided by He/Con_2b (FcγRIa against FcγRIIb)
T2 construct: extracellular domain; Soluble extracellular domain with C-terminal His tag, used as analyte in Biacore; also called FcgRI; 1a; not shown: His tag attached to the C terminus
T2 sequence (P12314 16-292): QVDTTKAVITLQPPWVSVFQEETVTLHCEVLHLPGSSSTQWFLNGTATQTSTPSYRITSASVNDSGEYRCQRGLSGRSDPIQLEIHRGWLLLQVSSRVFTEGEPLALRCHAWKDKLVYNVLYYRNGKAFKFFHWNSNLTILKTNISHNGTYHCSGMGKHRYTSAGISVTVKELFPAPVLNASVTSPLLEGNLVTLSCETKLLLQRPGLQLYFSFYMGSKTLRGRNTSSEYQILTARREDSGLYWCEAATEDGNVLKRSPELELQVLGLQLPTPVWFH

FcγRIIb = target: T1, FcγRIIb; experiment: SPR (Biacore), antibody captured on antigen peptide, FcγR as analyte; relative to GpH7-A5/GpH7-B3/GpL16-k0 = 100
FcγRIa [2] = target: T2, FcγRIa; experiment: as above

| Binder | Ia/IIb He_1a/2b (FcγRIa [1]) [ratio] | He/Con_2b (FcγRIIb) | He/Con_1a (FcγRIa [2]) |
| --- | --- | --- | --- |
| GpH7-A5/GpH7-B3 variant L234_09D/GpL16-k0 (antibody, human IgG1, kappa, Heterodimerized IgG1; mutation in the GpH7-B3 H chain only; also called He Ab) heavy 1: not shown heavy 2: not shown light: DIVMTQSPLSLPVTPGEPASISCQASESLVHSNRNTYLHWYLQKPGQSPQLLIYKVSNRFSGVPDRFSGSGSGTDFTLKISRVEAEDVGVYYCSQNTHVPPTFGQGTKVEIERTVAAPSVFIFPPSDEQLKSGTASVVCLLNNFYPREAKVQWKVDNALQSGNSQESVTEQDSKDSTYSLSSTLTLSKADYEKHKVYACEVTHQGLSSPVTKSFNRGEC | 0.65 | 150 % of control | 97.8 % of control |
| GpH7-A5/GpH7-B3 variant P238_04F/GpL16-k0 (antibody, human IgG1, kappa, Heterodimerized IgG1; mutation in the GpH7-B3 H chain only; also called He Ab) heavy 1: not shown heavy 2: not shown light: DIVMTQSPLSLPVTPGEPASISCQASESLVHSNRNTYLHWYLQKPGQSPQLLIYKVSNRFSGVPDRFSGSGSGTDFTLKISRVEAEDVGVYYCSQNTHVPPTFGQGTKVEIERTVAAPSVFIFPPSDEQLKSGTASVVCLLNNFYPREAKVQWKVDNALQSGNSQESVTEQDSKDSTYSLSSTLTLSKADYEKHKVYACEVTHQGLSSPVTKSFNRGEC | 0.32 | 312 % of control | 101 % of control |
| GpH7-A5/GpH7-B3 variant L235_20W/GpL16-k0 (antibody, human IgG1, kappa, Heterodimerized IgG1; mutation in the GpH7-B3 H chain only; also called He Ab) heavy 1: not shown heavy 2: not shown light: DIVMTQSPLSLPVTPGEPASISCQASESLVHSNRNTYLHWYLQKPGQSPQLLIYKVSNRFSGVPDRFSGSGSGTDFTLKISRVEAEDVGVYYCSQNTHVPPTFGQGTKVEIERTVAAPSVFIFPPSDEQLKSGTASVVCLLNNFYPREAKVQWKVDNALQSGNSQESVTEQDSKDSTYSLSSTLTLSKADYEKHKVYACEVTHQGLSSPVTKSFNRGEC | 0.63 | 147 % of control | 92.8 % of control |
| GpH7-A5/GpH7-B3 variant P238_08L/GpL16-k0 (antibody, human IgG1, kappa, Heterodimerized IgG1; mutation in the GpH7-B3 H chain only; also called He Ab) heavy 1: not shown heavy 2: not shown light: DIVMTQSPLSLPVTPGEPASISCQASESLVHSNRNTYLHWYLQKPGQSPQLLIYKVSNRFSGVPDRFSGSGSGTDFTLKISRVEAEDVGVYYCSQNTHVPPTFGQGTKVEIERTVAAPSVFIFPPSDEQLKSGTASVVCLLNNFYPREAKVQWKVDNALQSGNSQESVTEQDSKDSTYSLSSTLTLSKADYEKHKVYACEVTHQGLSSPVTKSFNRGEC | 0.49 | 204 % of control | 101 % of control |

Further lines, results first:

| Ia/IIb He_1a/2b (FcγRIa [1]) [ratio] | He/Con_2b (FcγRIIb) | He/Con_1a (FcγRIa [2]) | Binder |
| --- | --- | --- | --- |
| 0.8 | 106 % of control | 84.8 % of control | GpH7-A5/GpH7-B3 variant L235_09D/GpL16-k0 (antibody, human IgG1, kappa, Heterodimerized IgG1; mutation in the GpH7-B3 H chain only; also called He Ab) heavy 1: not shown heavy 2: not shown light: DIVMTQSPLSLPVTPGEPASISCQASESLVHSNRNTYLHWYLQKPGQSPQLLIYKVSNRFSGVPDRFSGSGSGTDFTLKISRVEAEDVGVYYCSQNTHVPPTFGQGTKVEIERTVAAPSVFIFPPSDEQLKSGTASVVCLLNNFYPREAKVQWKVDNALQSGNSQESVTEQDSKDSTYSLSSTLTLSKADYEKHKVYACEVTHQGLSSPVTKSFNRGEC |
| 0.65 | 149 % of control | 97.1 % of control | GpH7-A5/GpH7-B3 variant L235_15Y/GpL16-k0 (antibody, human IgG1, kappa, Heterodimerized IgG1; mutation in the GpH7-B3 H chain only; also called He Ab) heavy 1: not shown heavy 2: not shown light: DIVMTQSPLSLPVTPGEPASISCQASESLVHSNRNTYLHWYLQKPGQSPQLLIYKVSNRFSGVPDRFSGSGSGTDFTLKISRVEAEDVGVYYCSQNTHVPPTFGQGTKVEIERTVAAPSVFIFPPSDEQLKSGTASVVCLLNNFYPREAKVQWKVDNALQSGNSQESVTEQDSKDSTYSLSSTLTLSKADYEKHKVYACEVTHQGLSSPVTKSFNRGEC |
| 0.43 | 221 % of control | 96 % of control | GpH7-A5/GpH7-B3 variant P238_09D/GpL16-k0 (antibody, human IgG1, kappa, Heterodimerized IgG1; mutation in the GpH7-B3 H chain only; also called He Ab) heavy 1: not shown heavy 2: not shown light: DIVMTQSPLSLPVTPGEPASISCQASESLVHSNRNTYLHWYLQKPGQSPQLLIYKVSNRFSGVPDRFSGSGSGTDFTLKISRVEAEDVGVYYCSQNTHVPPTFGQGTKVEIERTVAAPSVFIFPPSDEQLKSGTASVVCLLNNFYPREAKVQWKVDNALQSGNSQESVTEQDSKDSTYSLSSTLTLSKADYEKHKVYACEVTHQGLSSPVTKSFNRGEC |
| 0.59 | 174 % of control | 102 % of control | GpH7-A5/GpH7-B3 variant P238_06M/GpL16-k0 (antibody, human IgG1, kappa, Heterodimerized IgG1; mutation in the GpH7-B3 H chain only; also called He Ab) heavy 1: not shown heavy 2: not shown light: DIVMTQSPLSLPVTPGEPASISCQASESLVHSNRNTYLHWYLQKPGQSPQLLIYKVSNRFSGVPDRFSGSGSGTDFTLKISRVEAEDVGVYYCSQNTHVPPTFGQGTKVEIERTVAAPSVFIFPPSDEQLKSGTASVVCLLNNFYPREAKVQWKVDNALQSGNSQESVTEQDSKDSTYSLSSTLTLSKADYEKHKVYACEVTHQGLSSPVTKSFNRGEC |
